Target: T1, human CCX CKR with N-terminal Flag epitope, stably expressed on HEK293 cells (human, UniProt Q9NPB9 1-350)
T1 construct: also called HEK293-CCX CKR cells
T1 sequence: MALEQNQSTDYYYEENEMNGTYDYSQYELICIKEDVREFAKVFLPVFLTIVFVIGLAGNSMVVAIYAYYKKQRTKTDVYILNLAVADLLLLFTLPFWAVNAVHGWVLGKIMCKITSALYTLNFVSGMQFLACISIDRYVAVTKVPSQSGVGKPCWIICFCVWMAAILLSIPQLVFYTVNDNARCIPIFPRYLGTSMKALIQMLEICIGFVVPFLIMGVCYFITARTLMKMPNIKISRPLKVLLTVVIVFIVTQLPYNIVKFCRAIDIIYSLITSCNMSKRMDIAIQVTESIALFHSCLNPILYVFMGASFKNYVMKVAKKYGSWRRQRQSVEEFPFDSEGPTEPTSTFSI
Assay: radioligand binding competition on CCX CKR stable transfectants (similar experiments)

B1: murine CTACK (ligand, UniProt Q9Z1X0 26-120, looked up)
chain: LPLPSSTSCCTQLYRQPLPSRLLRRIVHMELQEADGDCHLQAVVLHLARRSVCVHPQNRSLARWLERQGKRLQGTVPSLNLVLQKKMYSHPQQQN
notes: also called mCTACK; CCL27
- Kd: ~9 nM

From patent publication EP1224222B1 (ChemoCentryx, Inc., dated 2010)
